Patent US20150216948A1, “CYTOCHROME P450 SUICIDE GENE SYSTEM” (priority 2012, published 2015)
Where two headings read alike, the source gives them in different places.

How the values were obtained:
HepG2 cells [1] = assay: 4-IPO toxicity assay: survival of transduced HepG2 cells by flow cytometry (propidium iodine); type: cell-based, human; conditions: for 4-IPO processing activity / cell killing (in words): transduced cells challenged with 4-IPO
Excerpt: Initially, the serine at position 427 in the human CYP4B1 was mutated back to proline (h-P427), which is present at this position in all CYP4B1 proteins. Additionally a proline to serine exchange was created in the native rabbit CYP4B1 enzyme at the corresponding position 422 (r-P422). To immediately exclude the possibility that the different activities between human and the rabbit protein isoforms are simply due to differences in mRNA stability, the human CYP4B1 cDNA (SEQ ID NO.: 2) was optimized for human-codon usage (SEQ ID NO.: 3) by de novo synthesis with silent mutagenesis of the cDNA, thus removing internal TATA-boxes, instability motives, RNA secondary structures and (cryptic) splice donor/acceptor sites and ensuring an average GC content of around 60%. All cDNAs were cloned into the same lentiviral (LV) HIV1-based expression vector and LV supernatants produced by plasmid transfection in HEK293T cells. Subsequently, the two rabbit and the four human cDNAs were stably expressed in the human liver cell line HepG2. Stably expressing transduced cells were challenged after five days with increasing concentrations of 4-IPO for 24, 48 and 72 hours and then the survival of cells analyzed by flow cytometry using propidium iodine for live/dead cell discrimination.
(§1) Next, it was analyzed whether the different activities of the human and the rabbit proteins in processing 4-IPO could be explained by differences in protein half-life. However, as no antibody was available that can detect both CYP4B1 proteins, EGFP fusion constructs were generated. With these constructs, EGFP antibodies can be utilized to visualize and compare the expression levels and the half-lives of the fusion proteins in cells by western blots. EGFP expression can also be used for flow cytometry assessment of the expression levels due to the fluorescent properties of the fusion proteins. 5′- and 3′-fusions of EGFP with the native rabbit P422 and the human P427 CYP4B1 proteins were cloned in LV vectors with an IRES-NEO (NEO=neomycin phosphotransferase cDNA, npt II) and stably expressed in HepG2 cells (FIG. 3 B). For comparison, the corresponding IRES-EGFP constructs were also included, as these vectors had already been used in previous experiments and activity measurements thus already existed. Transduced cells were incubated for 24, 48 and 72 hours with increasing concentration of 4-IPO. Cultures were then harvested, cells stained with propidium iodine and subsequently analyzed for survival of transduced EGFP+ cells by flow cytometry (FIG. 3 A).

primary human T-cells = assay: 4-IPO toxicity in transduced primary T-cells; type: cell-based; conditions: 24 h and 72 h exposure to increasing doses of 4-IPO, EGFP fusions, FIG. 7 B
Excerpt: Compared to the HepG2 liver cells, primary T-cells might not provide an optimal environment for the function of P450 cytochromes (although the necessary reductase is ubiquitously expressed) and the infection of primary T-cells is considerably more complex.
The T cells were isolated by Ficoll and stimulated with CD3, CD28 and IL2 for 3 days before they were infected with lentiviral vectors using fibronectin. For optimal toxicity in T cells, the suicide genes were not expressed as EGFP fusions proteins but a IRES-EGFP-WPRO vector construct was used. […] However, after 24 hours over 70% of the transgenic T cells were eliminated by CYP4B1 P427 mut12. […] The determination of the virus titer was based on the titration of the reference cell line HT1080.

HepG2 cells [2] = assay: Half-life of CYP4B1/EGFP fusion proteins after cycloheximide (western blot, FACS); type: cell-based, human; conditions: EGFP fusion
Experimental: FIGS. 3 C and D show CYP4B1 stability as analysed by western blotting and by flow cytometry. The studies on protein expression and stability were performed with the rabbit and human CYP4B1/EGFP fusion construction in the lentiviral vector with the additional IRES-neomycin cassette. Half-life analysis was performed by adding 50 μg/ml cycloheximide to the transduced and G418-selected HepG2 cells. Samples were collected at the indicated time points.
as §1
After standard inhibition of de novo protein synthesis by cycloheximide, the half-life of the CYP4B1 proteins in stably transduced and G418-resistant HepG2 cells was assessed by determining the protein expression levels over time either in western blotting or in FACS analysis as EGFP fluorescence. […] For the human native protein (h-S427), the mean fluorescence indicates a short average half-life of only 6 hours.

[3] = relative to rabbit CYP4B1, cited from earlier work

B1: r-P422: wildtype rabbit CYP4B1 enzyme (protein, listed as Oryctolagus cuniculus)
chain: MLGFLSRLGLWASGLILILGFLKLLRLLLRRQRLARAMDSFPGPPTHWLFGHALEIQKTGSLDKVVTWTQQFPYAHPLWVGQFIGFLNIYEPDYAKAVYSRGDPKAPDVYDFFLQWIGKGLLVLDGPKWFQHRKLLTPGFHYDVLKPYVAIFADSTRIMLEKWEKKACEGKSFDIFSDVGHMALDTLMKCTFGKGDSGLNHRDSSYYVAVSELTLLMQQRIDSFQYHNDFIYWLTPHGRRFLRACRAAHDHTDRVIRQRKAALQDEKEREKIQNRRHLDFLDILLDVRGESGVQLSDTDLRAEVDTFMFEGHDTTTSGISWFLYCMALYPEHQQRCREEVREILGDQDSFQWEDLAKMTYLTMCMKECFRLYPPVPQVYRQLSKPVSFVDGRSLPAGSLISLHIYALHRNSDVWPDPEVFDPLRFSPENSSGRHPYAFIPFSAGPRNCIGQQFAMNEMKVVTALCLLRFEFSVDPLRLPIKLPQLVLRSKNGIHLYLKPLGPK
transduced HepG2 cells eliminated / dead (HepG2 cells [1]; after 24 hours of 4-IPO treatment, FIG. 2): over 95%
killing of primary T-cells with 4-IPO (in words) (primary human T-cells): more active than the native P427 and the human codon-optimized P427 CYP4B1 enzymes
protein stability (in words) (HepG2 cells [2]; cycloheximide, HepG2 cells): strongest protein stability

B2: h-S427: native human CYP4B1 protein with serine at position 427 (protein, listed as Homo sapiens)
chain: MVPSFLSLSFSSLGLWASGLILVLGFLKLIHLLLRRQTLAKAMDKFPGPPTHWLFGHALEIQETGSLDKVVSWAHQFPYAHPLWFGQFIGFLNIYEPDYAKAVYSRGDPKAPDVYDFFLQWIGRGLLVLEGPKWLQHRKLLTPGFHYDVLKPYVAVFTESTRIMLDKWEEKAREGKSFDIFCDVGHMALNTLMKCTFGRGDTGLGHRDSSYYLAVSDLTLLMQQRLVSFQYHNDFIYWLTPHGRRFLRACQVAHDHTDQVIRERKAALQDEKVRKKIQNRRHLDFLDILLGARDEDDIKLSDADLRAEVDTFMFEGHDTTTSGISWFLYCMALYPEHQHRCREEVREILGDQDFFQWDDLGKMTYLTMCIKESFRLYPPVPQVYRQLSKPVTFVDGRSLPAGSLISMHIYALHRNSAVWPDPEVFDSLRFSTENASKRHPFAFMPFSAGPRNCIGQQFAMSEMKVVTAMCLLRFEFSLDPSRLPIKMPQLVLRSKNGFHLHLKPLGPGSGK
4-IPO processing activity / cell killing (in words) (HepG2 cells [1]; listed as native CYP4B1 protein): comparable to the survival rate of non-transduced control cells
4-IPO processing activity / cell killing (in words) (HepG2 cells [1]; listed as native human CYP4B1 S427 protein): cannot process 4-IPO at all
activity to activate 4-IPO compared to the rabbit CYP4B1 [3]: > 1%
activity to activate 4-IPO compared to the rabbit CYP4B1 ([3]; listed as human isoform): ≤ 1%
protein half-life (HepG2 cells [2]; 50 μg/ml cycloheximide, G418-selected HepG2 cells): 6 h
